From patent publication US20030148377A1, “Binding compounds and methods for identifying binding compounds” (priority 2000, published 2003)

Tests used:
ZAP-70 [1] = molecular target: T1, ZAP-70 (Homo sapiens, UniProt P43403); experiment: Inhibition of tubulin phosphorylation by ZAP-70; assay type: biochemical; details: tubulin (5 μM) as substrate; FIG. 1D; compared to peptide 4
T1 construct: made in house; host or cells: Sf9 cells (baculovirus)
T1 sequence (P43403 1-619): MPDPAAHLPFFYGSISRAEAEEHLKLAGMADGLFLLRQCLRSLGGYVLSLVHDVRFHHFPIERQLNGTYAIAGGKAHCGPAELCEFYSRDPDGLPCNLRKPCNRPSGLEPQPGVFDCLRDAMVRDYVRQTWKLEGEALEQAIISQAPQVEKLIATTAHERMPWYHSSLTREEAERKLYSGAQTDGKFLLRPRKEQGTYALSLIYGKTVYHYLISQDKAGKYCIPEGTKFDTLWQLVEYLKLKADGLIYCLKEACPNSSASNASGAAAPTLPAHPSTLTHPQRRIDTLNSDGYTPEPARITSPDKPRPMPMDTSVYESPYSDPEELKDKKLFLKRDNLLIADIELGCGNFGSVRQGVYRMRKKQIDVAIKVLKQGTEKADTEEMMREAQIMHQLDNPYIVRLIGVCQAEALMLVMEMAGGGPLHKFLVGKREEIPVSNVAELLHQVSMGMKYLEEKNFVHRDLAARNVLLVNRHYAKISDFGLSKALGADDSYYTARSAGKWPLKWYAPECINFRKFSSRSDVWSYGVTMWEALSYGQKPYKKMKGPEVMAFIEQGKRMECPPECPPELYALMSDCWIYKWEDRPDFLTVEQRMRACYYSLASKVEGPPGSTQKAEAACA
Description: FIG. 1A: A glutathione-S-transferase chimera of ZAP-70 was purified from Sf9 cells and assayed for its ability to phosphorylate tubulin in the presence of 0, 50, or 100 μM of peptide 1 (SEQ ID NO: 5) or peptide 2 (SEQ ID NO: 6). The assay was carried out in kinase buffer (5 mM MnCl2, 5 mM MgCl2, 25 mM Tris [pH 7.4]), 50 μM ATP, and […] [γ-^32P]ATP for 5 min at 30° C. ^32P-phosphorylated tubulin was separated on SDS-PAGE, visualized by autoradiography (inset), and quantitated using a molecular imager (Bio-Rad).
FIG. 1D: The ZAP-70 Tyr-kinase assay was as described above, using tubulin (5 μM) as substrate. […]
(§1) Synthetic peptides, tubulin, or GST-band III (construct kindly provided by A. Weiss, University of California, San Francisco) (Zhao and Weiss, 1996) were phosphorylated by ZAP-70-GST-fused protein in the presence or absence of the indicated amount of inhibitory peptides in the kinase buffer (10 mM MnCl2, 50 mM Tris [pH 7.4], 1 mM DTT), 100 μM ATP, and 5 μCi [γ-^32P]ATP for 5 min (or 10 min for GST-band-III) at 30° C. The amount of radioactivity incorporated into substrate peptide was determined using the phosphocellulose assay. […] Phosphorylated tubulin, GST-band III, and myelin basic protein were separated on SDS-PAGE, visualized by autoradiography, and quantitated using a molecular imager (Bio-Rad, Hercules, Calif.).

ZAP-70 [2] = molecular target: T1, ZAP-70; experiment: Inhibition of ZAP-70 phosphorylation of peptide 1 (phosphocellulose assay, Lineweaver-Burke plot); assay type: biochemical; details: peptide 1 as substrate; FIG. 1B; compared to peptide 4
Description: FIG. 1B: ZAP-70 was also assayed for its ability to phosphorylate peptide 1 (10 μM) in the presence of 0, 10, or 50 μM of peptide 4 (SEQ ID NO: 9) or peptide 5 (SEQ ID NO: 10). Peptide phosphorylation was determined by spotting the reaction mixture on phosphocellulose and washing away the ^32P-ATP with a phosphate buffer. The polylysine tail of peptide 1 facilitates retention on the phosphocellulose (Songyang et al., 1996). The data are presented as the percentage of the activity present in the absence of inhibitory peptides. […]
as §1

Lck-GST-fused protein = molecular target: T2, Lck-GST-fused protein (Homo sapiens, UniProt P06239); experiment: Inhibition of myelin basic protein phosphorylation by Lck; assay type: biochemical; details: myelin basic protein (5 μM) as substrate; FIG. 1E; compared to peptide 4
T2 construct: made in house; host or cells: Sf9 cells
T2 sequence (P06239 whole entry, the tested form may be a part): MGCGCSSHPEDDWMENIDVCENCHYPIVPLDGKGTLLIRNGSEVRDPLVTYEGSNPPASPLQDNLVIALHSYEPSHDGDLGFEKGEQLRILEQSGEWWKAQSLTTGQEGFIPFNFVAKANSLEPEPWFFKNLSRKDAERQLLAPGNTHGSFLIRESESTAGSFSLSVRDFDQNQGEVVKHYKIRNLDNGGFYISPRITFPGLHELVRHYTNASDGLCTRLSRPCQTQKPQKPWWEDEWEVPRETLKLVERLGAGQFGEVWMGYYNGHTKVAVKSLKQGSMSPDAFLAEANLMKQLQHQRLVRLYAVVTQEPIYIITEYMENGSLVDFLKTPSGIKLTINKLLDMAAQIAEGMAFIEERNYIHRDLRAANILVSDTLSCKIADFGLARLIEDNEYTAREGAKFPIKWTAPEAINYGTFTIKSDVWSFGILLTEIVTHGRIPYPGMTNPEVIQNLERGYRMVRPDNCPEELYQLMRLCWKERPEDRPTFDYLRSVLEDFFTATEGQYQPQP
Description: FIG. 1E: A glutathione-S-transferase chimera of Lck was purified from Sf9 cells and assayed for the ability to phosphorylate myelin basic protein (5 μM) in the presence or absence of the same three peptides as used in FIG. 1D. The assay was carried out for 5 min at 30° C.
as §1, with “assay. Lck-GST-fused protein was purified from Sf9 cells. Myelin basic protein was phosphorylated by Lck-GST-fused protein in the presence or absence of inhibitory peptides in the kinase buffer (5 mM MnCl2, 5 mM MgCl2, 25 mM Tris [pH 7.4]), 50 μM ATP, and 5 μCi [γ-^32P]ATP for 5 min at 30° C.” for “assay.”

[3] = molecular target: T3, peptide 1 (optimal ZAP-70 substrate, EEEEYFFII AKKK)
T3 chain: EEEEYFFIIAKKK

[4] = molecular target: T4, peptide 2 (predicted optimal ZAP-70 binding peptide, KLILYLLLL AKKK)
T4 chain: KLILYLLLLAKKK

[5] = molecular target: T5, peptide 3 (ELILYLLLL AKKK)
T5 chain: ELILYLLLLAKKK

[6] = substrate: CC[C@H](C)[C@H](NC(=O)[C@H](CC(C)C)NC(=O)[C@@H](N)CCC(=O)O)C(=O)N[C@@H](CC(C)C)C(=O)N[C@@H](Cc1ccc(O)cc1)C(=O)N[C@@H](CC(C)C)C(=O)N[C@@H](CC(C)C)C(=O)N[C@@H](CC(C)C)C(=O)N[C@@H](CC(C)C)C(=O)N[C@@H](C)C(=O)N[C@@H](CCCCN)C(=O)N[C@@H](CCCCN)C(=O)N[C@@H](CCCCN)C(=O)O; experiment: Kinetic parameters for the phosphorylation of synthetic peptides by ZAP-70 (phosphocellulose assay); assay type: biochemical, Human; details: other: peptide as substrate, 100 μM ATP, 5 min at 30° C., average of three independent experiments
Description: (§2) Human ZAP-70-glutathione S-transferase (GST)-fused protein was expressed in Sf9 cells using baculovirus. In this study, we used GST-ZAP-70 expressed in Sf9 cells without coexpression of Lck for library screening and kinase assays because the substrate selectivity of partially activated ZAP-70 is higher than that of fully activated ZAP-70 in peptide library screening for their specific substrate motifs (unpublished results). ZAP-70-GST fused protein (600 μg) was purified by using glutathione-agarose beads. […]
as §1, with “Calif.). […]” for “Calif.).”

[7] = substrate: CC[C@H](C)[C@H](NC(=O)[C@H](CC(C)C)NC(=O)[C@@H](N)CCCCN)C(=O)N[C@@H](CC(C)C)C(=O)N[C@@H](Cc1ccc(O)cc1)C(=O)N[C@@H](CC(C)C)C(=O)N[C@@H](CC(C)C)C(=O)N[C@@H](CC(C)C)C(=O)N[C@@H](CC(C)C)C(=O)N[C@@H](C)C(=O)N[C@@H](CCCCN)C(=O)N[C@@H](CCCCN)C(=O)N[C@@H](CCCCN)C(=O)O; experiment: as above; assay type: biochemical, Human; details: other: peptide as substrate, 100 μM ATP, 5 min at 30° C., average of three independent experiments
Description: as §2
as §1, with “Calif.). […]” for “Calif.).”

[8] = molecular target: T6, Human ZAP-70-glutathione S-transferase (GST)-fused protein (human, UniProt P43403 1-619); experiment: comparison of ZAP-70 inhibition by peptide 4 and peptide 6, tubulin as substrate
T6 construct: the SH2 domains are spoken of as present; also called ZAP-70-GST fused protein; GST-ZAP-70; not shown: glutathione S-transferase (GST) fusion partner
T6 sequence (looked up): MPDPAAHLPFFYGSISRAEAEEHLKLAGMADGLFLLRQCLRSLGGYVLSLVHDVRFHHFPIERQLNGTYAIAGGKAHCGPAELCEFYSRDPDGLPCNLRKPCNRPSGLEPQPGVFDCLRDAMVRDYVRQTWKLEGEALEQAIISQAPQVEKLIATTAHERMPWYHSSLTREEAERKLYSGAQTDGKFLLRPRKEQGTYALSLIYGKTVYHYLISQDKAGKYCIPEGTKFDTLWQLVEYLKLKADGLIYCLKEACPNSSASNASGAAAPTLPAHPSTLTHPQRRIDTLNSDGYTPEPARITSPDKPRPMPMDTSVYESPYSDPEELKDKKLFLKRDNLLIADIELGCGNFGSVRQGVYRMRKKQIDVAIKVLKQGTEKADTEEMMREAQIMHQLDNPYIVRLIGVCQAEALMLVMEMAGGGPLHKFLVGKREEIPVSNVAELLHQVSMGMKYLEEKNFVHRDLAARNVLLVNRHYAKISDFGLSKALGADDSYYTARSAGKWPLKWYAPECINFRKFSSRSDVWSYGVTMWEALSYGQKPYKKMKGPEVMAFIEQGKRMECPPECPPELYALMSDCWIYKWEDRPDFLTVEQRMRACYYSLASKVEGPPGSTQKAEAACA

“peptide 5: peptide 4 with deletion of the Lys at position −4 (LILYLLLL)” was tested, and the “ZAP-70 inhibitory effect (in words)” value (ZAP-70 [1]) was “less effective as an inhibitor of both kinases”, the “inhibitory ability on ZAP-70 (in words)” value (ZAP-70 [2]) was “dramatically reduced the inhibitory ability” and the “Lck inhibitory effect (in words)” value (Lck-GST-fused protein) was “less effective as an inhibitor of both kinases”.

In the case of “KLILYLLLL [peptide 6, identical to peptide 4 except for Tyr replacing the Phe]”, the “ZAP-70 inhibitory effect (in words)” value (ZAP-70 [1]) is reported as “little effect on peptide binding to ZAP-70”.

B1: ZAP-70-GST-fused protein (Homo sapiens) (protein)
chain: MPDPAAHLPFFYGSISRAEAEEHLKLAGMADGLFLLRQCLRSLGGYVLSLVHDVRFHHFPIERQLNGTYAIAGGKAHCGPAELCEFYSRDPDGLPCNLRKPCNRPSGLEPQPGVFDCLRDAMVRDYVRQTWKLEGEALEQAIISQAPQVEKLIATTAHERMPWYHSSLTREEAERKLYSGAQTDGKFLLRPRKEQGTYALSLIYGKTVYHYLISQDKAGKYCIPEGTKFDTLWQLVEYLKLKADGLIYCLKEACPNSSASNASGAAAPTLPAHPSTLTHPQRRIDTLNSDGYTPEPARITSPDKPRPMPMDTSVYESPYSDPEELKDKKLFLKRDNLLIADIELGCGNFGSVRQGVYRMRKKQIDVAIKVLKQGTEKADTEEMMREAQIMHQLDNPYIVRLIGVCQAEALMLVMEMAGGGPLHKFLVGKREEIPVSNVAELLHQVSMGMKYLEEKNFVHRDLAARNVLLVNRHYAKISDFGLSKALGADDSYYTARSAGKWPLKWYAPECINFRKFSSRSDVWSYGVTMWEALSYGQKPYKKMKGPEVMAFIEQGKRMECPPECPPELYALMSDCWIYKWEDRPDFLTVEQRMRACYYSLASKVEGPPGSTQKAEAACA
notes: made in house; host or cells: Sf9 cells (baculovirus)
B1 gave a Km (µM) for phosphorylation of the synthetic peptide by ZAP-70 [3] of 40 µM, a Km (µM) for phosphorylation of the synthetic peptide by ZAP-70 [4] of 26 µM and a Km (µM) for phosphorylation of the synthetic peptide by ZAP-70 [5] of 188 µM. The “Km relative to peptide 2” value [5] was 7-fold higher Km than peptide 2, the Km [6] was 188 µM and the Km [7] was 26 µM.

B2: peptide 6 (KLILYLLLL) (peptide)
peptide: KLILYLLLL
notes: Identical to peptide 4 except for Tyr replacing the Phe
B2: binds [8].
